Reference: patent publication US20190359693A1 (Janssen / Centocor, published 2019)
Where a chain is given by its changes, count along the chain named.

B1: SD1083 (VHH)
VHH: EVQLVESGGGLVQPGGSLRLSCAATGFTLENKAIGWFRQTPGSEREGVLCISKSGSWTYYTDSMRGRFTISRDNAENTVYLQMDSLKPEDTAVYYCATTTAGGGLCWDGTTFSRLASSWGQGTQVTVSS
B2: SD3007 (VHH)
VHH: EVQLLESGGGLVQPGGSLRLSCAASGFTLENKAIGWFRQAPGKEREGVSCISKSGSWTYYADSVKGRFTISRDNSKNTVYLQMNSLRAEDTAVYYCATTTAGGGLCWDGTTFSRLASSWGQGTQVTVSS
B3: SD3008 (VHH)
VHH: B2 VHH with A88P
B4: SD3009 (VHH)
VHH: B2 VHH with I34M, G35S, S49L, V79L
B5: SD3010 (VHH)
VHH: B2 VHH with S49L, V79L
B6: SD3011 (VHH)
VHH: B2 VHH with S49L
B7: SD3012 (VHH)
VHH: B2 VHH with S49L, A88P
B8: SD3087 (VHH)
VHH: B2 VHH with S49L, A88P, Q124L
B9: SD3088 (VHH)
VHH: B2 VHH with S49L, V79L, Q124L
B10: SD1084 (VHH)
VHH: EVQLVESGGGLVQPGGSLKLSCAASGFTFSTSWMYWLRQAPGKGLEWVSVINTDGGTYYADSVKDRFTISRDNAKDTLYLQMSSLKSEDTAVYYCAKDWGGPEPTRGQGTQVTVSS
B11: SD3001 (VHH)
VHH: B10 VHH with K19R, Y35S, D65G, A74S, D76N, S83N, K86R, S87A
B12: SD3002 (VHH)
VHH: B10 VHH with K19R, D65G, A74S, D76N, S83N, K86R, S87A
B13: SD3003 (VHH)
VHH: B10 VHH with K19R, Y35S, D65G, A74S, S83N, K86R, S87A
B14: SD3004 (VHH)
VHH: B10 VHH with K19R, D65G, A74S, S83N, K86R, S87A
B15: SD3085 (VHH)
VHH: B10 VHH with K19R, D65G, A74S, D76N, S83N, K86R, S87A, Q111L
B16: SD3086 (VHH)
VHH: B10 VHH with K19R, L37V, D65G, A74S, D76N, S83N, K86R, S87A, Q111L
B17: SD1087 (VHH)
VHH: EVQLVESGGGLVQPGGSLRLSCVISGLSLDTYAVGWFRQAPGKEREGITCISSGHGMTYYADSVKGRFTVSTDNAKNTVYLQMNGLQPEDTARYYCATESRYYCSDNWPAPQRYIYWGQGTQVTVSS
B18: SD3049 (VHH)
VHH: EVQLVESGGGLVQPGGSLRLSCAASGLSLDTYAMSWFRQAPGKEREGVSCISSGHGMTYYADSVKGRFTISRDNSKNTLYLQMNSLQPEDTARYYCATESRYYCSDNWPAPQRYIYWGQGTQVTVSS
B19: SD3050 (VHH)
VHH: B18 VHH with V48I, S49T
B20: SD3051 (VHH)
VHH: B18 VHH with M57I
B21: SD3052 (VHH)
VHH: B18 VHH with M57L
B22: SD3053 (VHH)
VHH: B18 VHH with M57F
B23: SD3054 (VHH)
VHH: B18 VHH with V48I, S49T, M57I
B24: SD3055 (VHH)
VHH: B18 VHH with V48I, S49T, M57L
B25: SD3056 (VHH)
VHH: B18 VHH with V48I, S49T, M57F
B26: SD3069 (VHH)
VHH: B17 VHH with V23A, A75S, V79L, G85S, Q87R, P88A, R93V, Q122L
B27: SD3070 (VHH)
VHH: B17 VHH with V23A, M57I, A75S, V79L, G85S, Q87R, P88A, R93V, Q122L
B28: SD3071 (VHH)
VHH: B17 VHH with V23A, M57L, A75S, V79L, G85S, Q87R, P88A, R93V, Q122L
B29: SD3072 (VHH)
VHH: B17 VHH with V23A, I24A, A75S, V79L, G85S, Q87R, P88A, R93V, Q122L
B30: SD3073 (VHH)
VHH: B18 VHH with A24I, M34V, S35G, I70V, R72T, Q87R, P88A, R93V, Q122L
B31: SD3074 (VHH)
VHH: B17 VHH with V23A, V70I, A75S, V79L, G85S, Q87R, P88A, R93V, Q122L
B32: SD3075 (VHH)
VHH: B18 VHH with M34V, S35G, M57I, R72T, Q87R, P88A, R93V, Q122L
B33: SD3076 (VHH)
VHH: B18 VHH with M34V, S35G, M57L, R72T, Q87R, P88A, R93V, Q122L
B34: SD3092 (VHH)
VHH: B18 VHH with A24I, M34V, S35G, R72T, Q87R, P88A, R93V, Q122L
B35: SD3093 (VHH)
VHH: B18 VHH with A24I, M34V, S35G, R72T, L79V, Q87R, P88A, R93V, Q122L
B36: SD3100 (VHH)
VHH: B18 VHH with A24I, M34V, S35G, M57A, R72T, Q87R, P88A, R93V, Q122L
B37: SD3101 (VHH)
VHH: B18 VHH with A24I, M34V, S35G, M57S, R72T, Q87R, P88A, R93V, Q122L
B38: SD3102 (VHH)
VHH: B18 VHH with A24I, M34V, S35G, M57Q, R72T, Q87R, P88A, R93V, Q122L
B39: SD3103 (VHH)
VHH: B18 VHH with A24I, M34V, S35G, M57D, R72T, Q87R, P88A, R93V, Q122L
B40: SD3104 (VHH)
VHH: B18 VHH with A24I, M34V, S35G, M57N, R72T, Q87R, P88A, R93V, Q122L

Target: hemagglutinin (HA) of influenza B/Brisbane/60/08 (Victoria) (influenza B virus)
Test: cell-based or functional assay

Binder | VNA IC50 [nM]
B1 | 174
B2 | > 1000
B3 | > 1000
B4 | 194
B5 | 149
B6 | 53
B7 | 59
B8 | 32
B9 | 101
B10 | 12
B11 | 101
B12 | 5
B13 | 101
B14 | 5
B15 | 12
B16 | 40
B17 | 34
B18 | > 1000
B19 | > 1000
B20 | > 1000

Binder | VNA IC50 [nM]
B21 | > 1000
B22 | > 1000
B23 | > 1000
B24 | > 1000
B25 | > 1000
B26 | 56
B27 | > 1000
B28 | > 1000
B29 | 160
B30 | 28
B31 | 36
B32 | > 1000
B33 | > 1000
B34 | 51
B35 | 32
B36 | > 1000
B37 | > 1000
B38 | > 1000
B39 | > 1000
B40 | > 1000
